Data published in WO2019173771A1 (dated 2019).

Tests used:
[1] = target: T1, recombinant human CD147-Fc chimeric protein (R&D Systems, cat. no. 927-EMN-050), glycosylated (human, UniProt P35613-2 25-205, glycosylated (as supplied; migrated at about 62 kDa)); test: ELISA, CD147-Fc adsorbed at 1 ug/mL
T1 construct: Bought protein; also called glycosylated CD147-Fc fusion protein; glycosylated CD147 antigen; not shown: Fc part of the bought chimeric protein
T1 sequence (looked up): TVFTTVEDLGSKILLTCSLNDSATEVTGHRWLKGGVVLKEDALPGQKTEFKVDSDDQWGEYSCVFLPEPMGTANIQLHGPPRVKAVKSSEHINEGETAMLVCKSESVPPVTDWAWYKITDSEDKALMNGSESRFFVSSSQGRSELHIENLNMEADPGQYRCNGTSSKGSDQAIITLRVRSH

[2] = target: T2, recombinant human CD147-Fc chimeric protein (R&D Systems, cat. no. 927-EMN-050), deglycosylated (human, UniProt P35613-2 25-205, deglycosylated of N- and simple O-linked carbohydrates (Protein Deglycosylation Mix II or Enzymatic Protein Deglycosylation Kit; migrated at 52 and 48 kDa)); test: ELISA, deglycosylated CD147-Fc adsorbed at 1 ug/mL
T2 construct: Same bought protein as m6 after enzymatic deglycosylation; also called deglycosylated CD147-Fc fusion protein; deglycosylated CD147 antigen; not shown: Fc part of the bought chimeric protein
T2 sequence (looked up): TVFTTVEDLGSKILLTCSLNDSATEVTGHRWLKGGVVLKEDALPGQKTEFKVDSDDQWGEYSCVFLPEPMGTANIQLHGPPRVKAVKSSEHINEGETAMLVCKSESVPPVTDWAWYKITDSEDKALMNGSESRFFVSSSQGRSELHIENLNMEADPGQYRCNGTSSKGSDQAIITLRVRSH

[3] = target: T3, cynomolgus CD147 on the cynomolgus primary kidney epithelial cell line (cynomolgus monkey); test: FACS on the cynomolgus primary kidney epithelial cell line, Alexa Fluor 647 anti-human IgG
T3 construct: whole, on cells; also called cynomolgus monkey CD147

B1: humanized anti-human CD147 hu3A11 antibody (3A11 Lc1 / Hc1) (antibody, V domains shown)
VH: EVQLVESGGGLVQPGGSLRLSCAASGFTFSNYWMDWVRQAPGKGLEWVGEIRLKSYNYATHYAASVKGRFTISRDDSKNSVYLQMNSLKTEDTAVYYCTAAGTDYWGQGTLVTVSS
VL: DIQMTQSPSSLSASVGDRVTITCRASQSVRTDVGWYQQKPGKAPKLLIYYSSNRYTGVPSRFSGSGSGTDFTLTISSLQPEDFATYYCQQDYSSPYTFGQGTKLEIK
notes: also called hu 3A11 Lc1 / Hc1; huHc1 / huLc1
Question: Does B1 bind [1]?
Answer: Result: binds

Question: Does B1 bind [2]?
Answer: Result: binds

Question: What about the Kd [3] of the same binder?
Answer: Its Kd is 1.3 nM.
